Positions count from the first letter of the chain named. Where two headings read alike, the source gives them in different places.
B1: H16L16 (antibody, human IgG1, kappa)
heavy: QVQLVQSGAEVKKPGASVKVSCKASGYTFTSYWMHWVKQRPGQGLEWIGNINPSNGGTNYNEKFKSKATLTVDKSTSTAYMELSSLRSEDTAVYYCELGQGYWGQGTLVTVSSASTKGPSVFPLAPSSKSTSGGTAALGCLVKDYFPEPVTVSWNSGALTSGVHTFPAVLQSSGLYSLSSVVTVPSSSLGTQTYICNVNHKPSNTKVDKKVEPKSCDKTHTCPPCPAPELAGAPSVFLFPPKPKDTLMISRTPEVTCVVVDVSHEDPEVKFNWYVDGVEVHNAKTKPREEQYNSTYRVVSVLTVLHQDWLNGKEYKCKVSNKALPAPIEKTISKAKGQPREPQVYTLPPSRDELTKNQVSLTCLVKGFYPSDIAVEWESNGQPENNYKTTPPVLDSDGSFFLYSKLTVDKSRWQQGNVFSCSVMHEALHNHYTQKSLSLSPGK
light: DIVMTQSPLSNPVTLGQPVSISCRSSKSLLYKDGKTYLNWFLQRPGQSPQLLIYLMSTRASGVPDRFSGGGSGTDFTLKISRVEAEDVGVYYCQQLVEYPLTFGQGTKLEIKRTVAAPSVFIFPPSDEQLKSGTASVVCLLNNFYPREAKVQWKVDNALQSGNSQESVTEQDSKDSTYSLSSTLTLSKADYEKHKVYACEVTHQGLSSPVTKSFNRGEC
notes: Humanised 2A10; Human gamma1 mutated constant region and human kappa; also called H16L16 FL
B2: H18L16 (antibody, human IgG1, kappa, V domains shown)
VH: QVQLVQSGAEVVKPGASVKLSCKASGYTFTSYWMHWVKQRPGQGLEWIGNINPSNGGTNYNEKFKSKATLTVDKSSSTAYMELSSLRSEDSAVYYCELGQGYWGQGTLVTVSS
VL: DIVMTQSPLSNPVTLGQPVSISCRSSKSLLYKDGKTYLNWFLQRPGQSPQLLIYLMSTRASGVPDRFSGGGSGTDFTLKISRVEAEDVGVYYCQQLVEYPLTFGQGTKLEIKR
notes: Humanised 2A10; also called H18L16 FL
B3: HcLc (chimera of 2A10: murine 2A10 VH and VL with human IgG constant regions) (antibody, V domains shown)
VH: B2 VH with V5Q, S7P, A9T, V11L, E82Q, R87T
VL: DIVITQDELSNPVTSGESVSISCRSSKSLLYKDGKTYLNWFLQRPGQSPQLLIYLMSTRASGVSDRFSGSGSGTDFTLEISRVKAEDVGVYYCQQLVEYPLTFGAGTKLELKR
notes: Human gamma1 mutated constant region and human kappa; also called 2A10 chimeric antibody; the chimera
B4: H6Lc (antibody, human IgG1, kappa, V domains shown)
VH: B2 VH with V12K, L20V, K38R, R40A, K67R, L70M, V72R, K74T, S76T, S91T
VL: B3 VL
notes: Humanised heavy chain H6 paired with chimeric light chain Lc; The pairing is read from the name
B5: murine monoclonal antibody 2A10 (antibody, V domains shown)
VH: B2 VH with V5Q, S7P, A9T, V11L, E82Q, R87T, L108T, V109L
VL: DIVITQDELSNPVTSGESVSISCRSSKSLLYKDGKTYLNWFLQRPGQSPQLLIYLMSTRASGVSDRFSGSGSGTDFTLEISRVKAEDVGVYYCQQLVEYPLTFGAGTKLELK
notes: Murine antibody; also called donor antibody
B6: H6L18 (antibody, human IgG1, kappa, V domains shown)
VH: B2 VH with V12K, L20V, K38R, R40A, K67R, L70M, V72R, K74T, S76T, S91T
VL: B2 VL with S7D, P64S, G70S
notes: Tested as CHO-K1 supernatant

Columns and labels:
GST-human NOGO-A56 [1] = target: T1, GST-human NOGO-A56 (human, UniProt P08515 1-218 = GST); test: SPR (Biacore 3000), GST-human NOGO-A56 on CM5, antibody as analyte; single experiment
T1 construct: GST-tagged fusion expressed in E. coli BL21 and purified on glutathione-sepharose; coated on ELISA plates or amine-coupled to a CM5 chip; also called hNOGO; recombinant human NOGO
Description: (§1) The binding kinetics of the anti-NOGO monoclonal antibody (mAb) to recombinantly expressed human NOGO-A (GST-human NOGO-A56) was analysed using the Biacore3000 biosensor. The hNOGO-A chip was prepared as follows:
(§2) hNOGO (GST-human NOGO-A56) was immobilised to a CM5 chip by primary amine coupling using the Biacore Wizard program designed for targeted immobilisation levels. The CM5 sensor surface was activated by passing a solution of 50 mM N-hydroxy-succinimide (NHS) and 200 mM N-ethyl-N′-dimethylaminopropyl […] (EDC). Then hNOGO in sodium acetate buffer, pH5.0 or pH 4.5, was passed over the chip and immobilised. After immobilisation was complete any still activated esters were blocked by an injection of 1M ethanolamine hydrochloride, pH8.5.
(§3) The anti-NOGO mAbs were diluted down in HBS-EP (10 mM HEPES, pH 7.4, 150 mM NaCl, 3 mM EDTA, and 0.005% P-20 surfactant) and binding studies were carried out at range of defined antibody concentrations. All runs were referenced against a blanked sensor surface (one that had been activated and blocked as described earlier but had no addition of ligand). Analysis of binding was carried out using the BIAevaluation kinetic analysis software version 4.1. Biacore analysis of other antibodies of the invention essentially followed the same protocol as described herein.

GST-human NOGO-A56 [2] = target: T1, GST-human NOGO-A56; test: ELISA, coated GST-human NOGO-A56, transfection supernatant, anti-human kappa-HRP, OD 490 nm
Description: (§4) GST-human NOGO-A56 (SEQ ID: 76) at 1 μg/ml in PBS was coated onto Nunc Immunosorp plates (100 μl per well) at 4° C. overnight. Wells were rinsed once with TBS+0.05% Tween (TBST) then incubated with 2% BSA in TBST to block non-specific binding sites at room temperature for 1 hour. Antibodies were diluted in TBST+2% BSA to 10 μg/ml and 1/2 dilutions made from this. Antibodies were added to wells in duplicate and incubated at room temperature for 1 hour. Wells were washed three times with TBST then incubated with anti-human kappa peroxidase conjugate (1:2000) for 1 hour. The wells were washed three times with TBST and then incubated with 100 μl OPD peroxidase substrate (Sigma) per well for 10 minutes. The colour reaction was stopped by the addition of 25 μl concentrated H₂SO₄. Optical density at 490 nm was measured using a plate reader. Background values read from wells with no antibody were subtracted.

GST-human NOGO-A56 [3] = target: T1, GST-human NOGO-A56; test: as above; remark: listed apart in the source
Description: as §4

GST-human NOGO-A56 [4] = target: T1, GST-human NOGO-A56; test: as above; remark: listed apart in the source
Description: as §4

GST-human NOGO-A56 [5] = target: T1, GST-human NOGO-A56; test: SPR (Biacore 3000), GST-human NOGO-A56 amine-coupled to CM5, antibody as analyte; mean (SD) of four experiments
Description: as §1, §2, §3

GST-human NOGO-A56 [6] = target: T1, GST-human NOGO-A56; test: SPR (Biacore) off-rate ranking, CHO-K1 transient supernatant over GST-human NOGO-A56 chip; mean (SD) of three runs
Description: as §2
(§5) The hNOGO chip was prepared as for kinetic analysis. Cell supernatants where taken directly from transient transfections of CHO-K1 cells. These were passed directly over the sensor surface and the interaction measured. A mock transfected cell supernatant was used for double referencing to remove any artefacts due to the tissue culture media. All runs were referenced against a blanked sensor surface (one that had been activated and blocked as described earlier but had no addition of ligand). Analysis of binding was carried out using the BIAevaluation kinetic analysis software version 4.1.

GST-human NOGO-A56 [7] = target: T1, GST-human NOGO-A56; test: ELISA, coated GST-human NOGO-A56, transfection supernatant, anti-human kappa-HRP, OD 490 nm; remark: listed apart in the source
Description: as §4

GST-human NOGO-A56 [8] = target: T1, GST-human NOGO-A56; test: as above; remark: listed apart in the source
Description: as §4

GST-human NOGO-A56 [9] = target: T1, GST-human NOGO-A56; test: SPR (Biacore) off-rate ranking, CHO-K1 transient supernatant over GST-human NOGO-A56 chip; mean (SD) of two runs
Description: as §2, §5

GST-human NOGO-A56 [10] = target: T1, GST-human NOGO-A56; test: SPR (Biacore 3000), GST-human NOGO-A56 on CM5, antibody as analyte; mean (SD) of two experiments
Description: as §2, §3

GST-human NOGO-A56 [11] = target: T1, GST-human NOGO-A56; test: ELISA, coated GST-human NOGO-A56, transfection supernatant, anti-human kappa-HRP, OD 490 nm; remark: listed apart in the source
Description: as §4

GST-human NOGO-A56 [12] = target: T1, GST-human NOGO-A56; test: as above; remark: listed apart in the source
Description: as §4

GST-human NOGO-A56 [13] = target: T1, GST-human NOGO-A56; test: SPR (Biacore 3000), GST-human NOGO-A56 on CM5, antibody as analyte; mean (SD) of two experiments; mean (SD) of two separate experiments
Description: as §2, §3

GST-human NOGO-A56 [14] = target: T1, GST-human NOGO-A56; test: SPR (BiaCore kinetic analysis), human NOGO
GST-human NOGO-A56 [15] = target: T1, GST-human NOGO-A56; test: SPR (Biacore) off-rate ranking, CHO-K1 transient supernatant over GST-human NOGO-A56 chip; single experiment
Description: as §2, §5

T1 sequence (P08515 1-218, tags or fused parts left off): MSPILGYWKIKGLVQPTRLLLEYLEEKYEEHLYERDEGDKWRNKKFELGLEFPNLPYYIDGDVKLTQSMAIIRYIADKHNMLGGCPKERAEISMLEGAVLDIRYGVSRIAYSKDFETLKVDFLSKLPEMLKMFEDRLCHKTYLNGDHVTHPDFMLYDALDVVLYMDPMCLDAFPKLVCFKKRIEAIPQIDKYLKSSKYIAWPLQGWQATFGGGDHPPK

Row | Binder | Kd (GST-human NOGO-A56 [1]) [nM] | koff (GST-human NOGO-A56 [1]) [s⁻¹] | kon (GST-human NOGO-A56 [1]) [M⁻¹ s⁻¹] | EC50 (read off the curve) (GST-human NOGO-A56 [2]) [µg/mL] | EC50 (read off the curve) (GST-human NOGO-A56 [4]) [µg/mL] | Kd (GST-human NOGO-A56 [5]) [nM] | koff (GST-human NOGO-A56 [5]) [s⁻¹] | kon (GST-human NOGO-A56 [5]) [M⁻¹ s⁻¹] | EC50 (read off the curve) (GST-human NOGO-A56 [7]) [µg/mL] | EC50 (read off the curve) (GST-human NOGO-A56 [8]) [µg/mL] | koff (GST-human NOGO-A56 [9]) [s⁻¹] | koff (GST-human NOGO-A56 [10]) [s⁻¹] | kon (GST-human NOGO-A56 [10]) [M⁻¹ s⁻¹] | also measured
1 | B1 | 1 | 0.00569 | 5.47e+06 | ~0.04 | ~0.06 | 1.26 | 0.00554 | 4.37e+06 |  |  |  |  |  | EC50 (read off the curve) (GST-human NOGO-A56 [3]): ~0.06 µg/mL; koff (GST-human NOGO-A56 [6]): 0.00664 s⁻¹
2 | B2 |  |  |  |  | ~0.04 | 1.62 | 0.00586 | 3.64e+06 | ~0.4 | ~0.4 | 0.00687 |  |  | 
3 | B3 | 1.6 | 0.00412 | 2.62e+06 | ~0.02 |  | 1.41 | 0.00378 | 2.7e+06 | ~0.2 | ~0.2 | 0.00376 | 0.00346 | 3.52e+06 | Kd (GST-human NOGO-A56 [10]): 0.995 nM; EC50 (read off the curve) (GST-human NOGO-A56 [11]): ~0.09 µg/mL; EC50 (read off the curve) (GST-human NOGO-A56 [12]): ~0.05 µg/mL
4 | B4 |  |  |  |  |  |  |  |  |  |  |  | 0.00284 | 2.17e+06 | Kd (GST-human NOGO-A56 [13]): 2.21 nM
5 | B5 |  |  |  |  |  |  |  |  |  |  |  |  |  | Kd (GST-human NOGO-A56 [14]): ~1 nM; koff (GST-human NOGO-A56 [14]): ~0.00184 s⁻¹
6 | B6 |  |  |  |  |  |  |  |  | ~0.5 | ~0.4 |  |  |  | koff (GST-human NOGO-A56 [15]): 0.0106 s⁻¹
